The series in a line: label from the status in PepcDB records.

Experimental findings from a protein production outcome set (Wang et al. 2014) are described below.

Turning to “MGAIPKTGTISPEQKDSQEKNLFQKIWSWEIGVIPLPLYTVLAVIIILAAYYNELPANMLGGFAIIMILGVFLGDIGQRIPILKDIGGPAILSLFVPSFLVFYNVLNSTSLDAVTNLMKTSNFLYFYIACLVVGSILGMNRIVLIQGFIRMFVPLVAGTIAAVAAGILVGFIFGYSAYDSFFFVVVPIIAGGIGEGILPLSIAYSQILGSSADVFVSQLVPAAIIGNVFAIICAALMKKLGDKRPDLNGNGRLVKSKKANEIFNQKEAEAKIDFKLMGAGVLLACTFFIFGGLLEKFIFIPGAILMIISAAAVKYANILPKKMEEGAYQLYKFISSSFTWPLMVGLGILFIPLDDVASVISIPFVIICISVVIAMIGSGYFVGKLMNMYPVESAIVTCCHSGLGGTGDVAILSASGRMGLMPFAQISTRLGGAGTVICATVLLRFFTS”, the protein production entry is listed as “failed”.

Turning to “MGARAPFAVAGRGEIGRGQQGQAQPGGMMRALALALLLWPACAAAEFFTLKGHGGPVMGIAVGPEGQIATASFDNSVGLWTGRAPHWFEGHEAAVNTVAFQGGVLYSAGDDFTLRRWPEGTILGRHKGKITGLALSETLAATASWDGTIGLWPLDSRAPRSLDAASGVNAVAFSPDGTLLYSAGMDGVLRLWDVASGSELRQITRHGFGINEIVLNDADGWLAYGAVDGVTRILDLATGAERDFTLDRRPVLALALSPDRSQLAVGDGEGYIMVIDTASWRIARDFRATLRGPVWALAFSPDGANIHAGGIDDTMYSWPVASLSEHGKMASGERSFLKDPDQMDNGERQFARKCSICHALTPEGGRRAGPTLYRVFGRRAGTLPGYLYSDTLAGSDIVWTEESINSLFDLGPDHYIPGSKMPMQRITGAQDRADLIAYLRRATLAKESP”, the protein production entry is listed as “failed”. On to “MGAVSAFSWASSGRLHALEVFVMKIPKTYDEIMEHFGGLIDEVTAELLESYAKGETVRVSEALAKSGRVAVEGVVLRVFPVRHFSKNGRSGKVGSVVIQDDCTVRVNFWNEAAEIIEAGDIVEGARIKVRGYARGEEIHVNSLSEVEVFVDFVNISELDEKVGERVNVKGFVSGLGEPEKANEIYISDETGRVKVLLENESLYYAVDIGSYVEIYNALAGEDGIYVDRNSRFSVGELEHHHHHH”, for which the protein production result is given as “failed”. In the case of “MGCDFAIAKDFLLFFLTKPISMKLSVIIPIYNEIQTIEKILKKITTVMPEIPKEIVMVDDGSKDGTREWLVDTFGDPEQHPVLANVNLAGKFQCFPLDQSAETNGDRQGNSFVMPKEWEVKVIFHRQNQGKGGALHTAFAAATGDVLIIQDADLEYDPEDWGPMWKLIDGGWADVVYGSRFYGNPHRVLYFHHYLGNKLITSLIDLVCNINLTDIEVCYKMFRREVLEDLRLTCNDFGFEVEFTMKVTRSPKRWRIYEVGVAYYGRTFAEGKKINWRDGVKALGYIAKFWLTNALEHHHHHH” it was “failed”. In the case of “MGDEALVVDPLRFIDVYEQVAQQEGVTITHIVDSHLHADHLSGGKALAERTGAAYYLMKSEGAVFDFEPLEQHETIDFENVHLEVLAVKTPGHTPGSVSFFVNGKWLFSGDTIFVGGLGRPDLGGKVAEWAEDLYHTVYEKVAAMADDVIVLPAHYANLDEEINAEGYVGDTLGRIRARNEMMQNKAKDEFIDLVIQGLEHHHHHH” it was “failed”; in that of “MGDGAVKQGFLYLQQQQTFGKKWRRFGASLYGGSDCALARLELQEGPEKPRRCEAARKVIRLSDCLRVAEAGGEASSPRDTSAFFLETKERLYLLAAPAAERGDWVQAICLLAF”, “not failed”; in that of “MGDNWRYEVKYDGFRTILFWTKETIRLESRNERLLTDQFPEIHDFCQRISNKVEAWLPITIDGELVHLVSPYRAHFAPIQTRSFMRKHETIAASSIKTPATLLAFDILELKGKTLVDLPYDERKKQLKALLKAIDVPLEHHHHHH”, “failed”. In the case of “MGDQRFDVLITGGTLVDVVTGELRPADIGIVGALIASVHEPASRRDAAQVIDAGGAYVSPGLIDTHMHIESSMITPAAYAAAVVARGVTTIVWDPHEFGNVHGVDGVRWAAKAIENLPLRAILLAPSCVPSAPGLERGGADFDAAILADLLSWPEIGGIAEIMNMRGVIERDPRMSGIVQAGLAAEKLVCGHARGLKNADLNAFMAAGVSSDHELVSGEDLMAKLRAGLTIELRGSHDHLLPEFVAALNTLGHLPQTVTLCTDDVFPDDLLQGGGLDDVVRRLVRYGLKPEWALRAATLNAAQRLGRSDLGLIAAGRRADIVVFEDLNGFSARHVLASGRAVAEGGRMLVDIPTCDTTVLKGSMKLPLRMANDFLVKSQGAKVRLATIDRPRFTQWGETEADVKDGFVVPPEGATMISVTHRHGMAEPTTKTGFLTGWGRWNGAFATTVSHDSHNLTVFGGNAGDMALAANAVIGTGGGMAVASEGKVTAILPLPLSGLVSDAPLEEVARAFEDLREAVGKVVEWQPPYLVFKACFGATLACNIGPHQTDMGIADVLTGKVMESPVIEVLEHHHHHH” it was “failed”; in that of “MGDSMSLDWDKLRIFHAAAEAGSFTHAADKLHLSQSAISRQVSSLEQDVGIKLFHRHARGLILTEQGEMLYRTAHDVLMKLESVKAQLSETTDKPSGKLRITTTVGLGQGWLTDKIQEFMSLYPEIQVQLILDNEELDVNMRHADCAIRLRQPQQSDLIQRKLFTVHMHVYAAPSYINKYGEPQSLDDLDNHRIITFGEPAPNYLLDVNWLEIAGRDSDNPRISHLQINSQTSIKRACLLGIGIAMLPDYIVGRDPGLIQLPISADIPSFDTYFCYPDELKNAAKLKVFRDYIVAKARNWNF”, “failed”.

As for “MGDSPMNKNAKPDLAGTAALALDKGDPLLTPASVSQRDDARSQQPLGREALDVFVAWSIIGIFLIMSMAVIHELSMILMPVVMAVVVGMILGISAEKLASYGIPGAGVALILSTLVAAVIFFVVNSLIDPVSQLATEGPALIERSIDRFLPYVQNLRWLNISAATFSMGSMSMESLISRSGEIITLLGANVTPAIVQGLIFLAALLMFLYSRLRLRKALIMVFPARHQRLRTIRIIGSVEKVLGTYFATASLIYAALGVTMIVIAYVGGLSMPLLWGLFAFLSSFVPFLGITLMTISLTIAGIIAHDNMILALLPAGVFFTIHLLMENLAFPAVVGRNMEINPFLVFVMIIFWTWMWGAAGAMLALPLSLIAMTVTRELFPSRRVVPKLPD”, the protein production result is “failed”. On to “MGEMAPTLVLKNATYLNSVRGKWLDANIWIYQDRIVYVGQDMPAKLDDETEVVDCGQQVIVPGYIEHHAHPFQLYNPHSFANYAAAMGTTTLINDNLEHHHHHH”, for which the protein production entry is “not failed”. In the case of “MGENNSHKHSLLFIVLISCAAGLGGLLYGYDTAVISGAIGFLKKLYNLSPAMQGFVISSIMVGGVLGVGFSGFLGDAIGRRKVLMLAAALFAISAVISSISTSAFMLIFARIVGGLGIGMASALSVTYITECAPPSIRGRLSSLYQLFTILGISITFFVNLGIVNMGSETWRVSTGWRYMLACGTVPAIVFLITLFFVPESPRFLVKSGNIKKAAAVLTKINGAEIAKQELDSISKSLATENDSSLGQLLQPGLRRALLIGIFLAIFNQAIGMNSITYYGPEIFQMIGFKNNSSFLATSVIGVVEVFSTILAMFLIDKLGRKKLMEIGSAAMAVFMLLIGTSFYIKLSNGFVILIFIICFVVSFCISMGPIPWIMIPEIFPNHLRARATGIATIFLWGANWAIGQFTPMLLNGIGGAYTFWIFCGINVICFLVVTTKVPETKNKSLEEIEKFWIPKSKQNAKGSSVGAK” it was “failed”; in that of “MGERIIPKNMKPMNGMLLEHLARYYFSTPYASGRVLDIACGTGYGSVMVAKTRKTEVDQVLGVDFDADVIHYAKQNYYHPKVSFLVGDAMDPYLRNQIGTFDTILSFETIEHVKDDRLFIERMRQLLKKDGTLVLSTPFGQGRGKPSDEPFHYHQLTEEEFRSLFDSFSEKEVFYQRGVTIEPKRTNVHYAFGVAVCKLEHHHHHH”, “failed”. In the case of “MGERSDSRLAAMRTDELNIDVVLVQRLVAGQFPRWAGLGVEAVDSGGTSNAMYRLGADLVVRLPRRAGAEGDVAKEHRWLPWLAPRLPVAVPVPLGQGLPAGNYPFRWSVYRWLDGATPDVGHLVAPGLLAEDLAGFIDALHRVDPAGGPDSYRSEHLAVRDTVTREAIEELRGVVDADAARAVWETALRAPVWAGPPVWIHADLQPGNVLVDRGRLGAVIDFGCLGLGDPAVDLIVAWYVLPGDVREAFRAAVAADDASWARGRGWALSIALVELRYYRDTNPVMAGHARRVIREVLDGRER” it was “failed”; in that of “MGEVWTWIISFLILITLLGLIVYQLISLADLEFDYINPYDSASRINFVVLPESILQGFLCVFYLVTGHWFMALLCVPYLYYNFHLYSRKQHLIDVTEIFNLLDWEKKKRLFKLAYIILTLFLTIFWLIYSTLDDYED”, “failed”.
